Test results from the supplement of paper PMC12764529.
± gives the half width of the 95% confidence interval.

Assay: folding stability dG unfold from trypsin proteolysis; higher = more stable
Method in brief: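 K50 was inferred by Bayesian fitting of sequencing counts obtained after protease digestion of designed mini-proteins. Unfolding free energy was derived by comparison with a sequence-predicted unfolded-state K50 and a shared folded-state K50, for each protease or both combined. The mini-proteins were under 80 residues, had no cysteine, were carried in a PA-tagged cDNA display construct, and were kept only if AlphaFold2 dimer inter-PAE exceeded 15.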

With “SAGEVAPEEIRKIAEEIAKKLGLKNVKVEVSRDEETGEITVKIEVDIPESKKEKKEELEKAIKEKLGLKSAG [r5_9_JUSTAS]” as the sequence, how does the “folding stability dG unfold” value read?
Its value is 1.97 ± 0.084 kcal/mol.

Which “folding stability dG unfold” value does the source give for “SAGGSAGGSAMRPVSFTLVSTETAPNGVKVTKYVLTEPTGPAREYTSTNLLVEGSSLTDLSSAGGSAGGSAG [r3_261_JUSTAS]” here?
The value was 0.0443 ± 0.084 kcal/mol.

With “SMVLELPAKDLKLEVNEDGTLKLTIKLENGKKVTFTFPAGDKITKIEVLSPDKVKIIFEKKPLKDLKTFLSA [r9_501_TrMRF]” as the sequence, how does the “folding stability dG unfold” value read?
Its value is 1.1 ± 0.047 kcal/mol.

For “SAGGSATAEELAEEIAREIAEAFPAEVVRVEVEEVDEDRVVFRMEVRVPLPDGSTVRAPFTVVVPASAGGSA [r15_276_TrMRF]”, which “folding stability dG unfold” value is on record?
Its value is 0.572 ± 0.042 kcal/mol.

With “SAGGSAGGEKEYIIKIKLEMPNGREMKHWFPFKTVEQIKDQLRKLPDPNYKIDDVEIMPADELKSAGGSAGG [r6_297_TrROS]” as the sequence, how does the “folding stability dG unfold” value read?
Its value is -0.237 ± 0.14 kcal/mol.

For “SAGGSAGGSESKITILVLDEETQELYLIEVTLKYNPETGELETEMKIEKITLKPGEKLDLKDLSAGGSAGGS [r12_700_TrROS_Hall]”, which “folding stability dG unfold” value is on record?
Its value is 2.43 ± 0.2 kcal/mol.

Which “folding stability dG unfold” value does the source give for “SAGKKTITVPLKDLKKVLEELKKKYPNIKKVKIYVNGKEYEIKVGEKVKITEVIKNENGEEFVKIEIYKSAG [r5_130_TrROS_Hall]” here?
The value was 2.97 ± 0.17 kcal/mol.

With “SAGGKKYKVKVVSVEYDKETKEVTVKVEFEDNKVVVEKKVKVKLPPVKIEFSEEDLKEGKVEIKIEFSAGGS [r16_809_TrROS_Hall]” as the sequence, how does the “folding stability dG unfold” value read?
The value was 1.46 ± 0.11 kcal/mol.

With “SAGGSAGGSMEIPANIPIEEFAALIKKKGNFEVKKVGPKTFVIVSKDNKKPLVVKFDAKPGLDSAGGSAGGS [r20_236_TrMRF]” as the sequence, how does the “folding stability dG unfold” value read?
Its value is -0.035 ± 0.064 kcal/mol.

With “SAGGSAGGSAGGKIVKIEFDKETKEIKITLPNGKKITISKEDLKNMKIEIKVYPKKKKKKSAGGSAGGSAGG [r7_98_TrROS_Hall]” as the sequence, how does the “folding stability dG unfold” value read?
The value was 0.774 ± 0.093 kcal/mol.

For “SAGKARIVEYDEESGTITIEVDGKTIEIELAPGETAEITLEENEDGTLTLTITVNGKTLTLTIPLDDLKSAG [r5_500_TrROS_Hall]”, which “folding stability dG unfold” value is on record?
The value was 2.61 ± 0.18 kcal/mol.

For “SAGGSAGGSATIYIIMPPDDPIPPNMPIRLPDGKPVRIDVEPVPLEEDGGPIFRIEVEPGATSAGGSAGGSA [r18_476_TrROS]”, which “folding stability dG unfold” value is on record?
Its value is -0.181 ± 0.12 kcal/mol.

With “SAGGSAGGSAYWRIKIFYPNNGREVTIHVPGSADDILDEAKPQFGYPPDNIKKIKIEPMDNSAGGSAGGSAG [r3_79_TrROS]” as the sequence, how does the “folding stability dG unfold” value read?
Its value is -0.409 ± 0.33 kcal/mol.

Which “folding stability dG unfold” value does the source give for “SAGGSAGGSAKELLKNIEKVEIIKNKKTNKYTIRIKNKNGKVYEFEFKSLEEALKKAGIKPSAGGSAGGSAG [r3_36_TrROS_Hall]” here?
Its value is 2.24 ± 0.041 kcal/mol.

For “SAGGSAGGSAGGKLTIVIEGMSEEEVKALAEALRKAGLEIEVTVVPVEVKEPELPEEEKSAGGSAGGSAGGS [r10_361_TrROS_Hall]”, which “folding stability dG unfold” value is on record?
Its value is 1.57 ± 0.081 kcal/mol.

With “GMSVTSYETDPNTGGPSISISSAPDPKTGLLSAPVTVYDPKTGQSKTINLTATSSEELAAKIAELLPASLLS [r1_156_JUSTAS]” as the sequence, how does the “folding stability dG unfold” value read?
The value was 1.39 ± 0.024 kcal/mol.

With “SAGGIYRVEIEIPGGNTIEFMIPGATEEMAKEIANELAQHFNPGDIKIEVYPIPPVKVDPEDGKWKWSAGGS [r8_167_TrROS]” as the sequence, how does the “folding stability dG unfold” value read?
The value was 0.579 ± 0.039 kcal/mol.

Which “folding stability dG unfold” value does the source give for “SAGGSAGGSATVKIVETKVGADGAVYTTALVTLPNGGVLIVKTKTYPSGESETSVTLTSGKEFSAGGSAGGS [r12_995_TrMRF]” here?
Its value is 2.21 ± 0.081 kcal/mol.

Which “folding stability dG unfold” value does the source give for “SLKPGEPRTVEMTMIIPITPDEIAKLFGLDIPPGTYIMVEMRMRVPPNADIEMDPDIHLYDPDDNKWFPISA [r9_349_TrROS]” here?
The value was 2.18 ± 0.089 kcal/mol.

Which “folding stability dG unfold” value does the source give for “SPEKEIKVKYELPEPGSGPVKVEATFTINPKTGEVKMPVTLTRPGSSSQVNLPEELLKELKNKVLEELGKSA [r9_1136_JUSTAS]” here?
Its value is -0.621 ± 0.29 kcal/mol.

Which “folding stability dG unfold” value does the source give for “SAGPKAEIINKNGKKISFSAKNIKITSYPEKGILTGIIPKKNKKIEIKVDNNKITLIVYDGGKYKEFPISAG [r5_786_TrMRF]” here?
The value was 2.07 ± 0.071 kcal/mol.

With “SAGGSAGGSKKPIDIKIEDVDHRRNPNGQPYMKIRIEIPGKPLLSYTFPPGASVEDFLKNILSSAGGSAGGS [r20_115_TrROS]” as the sequence, how does the “folding stability dG unfold” value read?
The value was 1.1 ± 0.033 kcal/mol.

With “SAGGSAGGSMTAEELAKAFPNLPKEEITEIRVEKNEDGTITVTITVKNKNGEKIEIKVEIKLESAGGSAGGS [r12_1050_TrROS_Hall]” as the sequence, how does the “folding stability dG unfold” value read?
Its value is 1.34 ± 0.097 kcal/mol.

For “SAGGKKKVKITKITSIDKKNGVITLEIEDPKTKKKYKIKAKVVKLKNGKKLLVIEIEVNGKKIKIVFKSAGG [r13_993_TrROS_Hall]”, which “folding stability dG unfold” value is on record?
The value was 2.49 ± 0.15 kcal/mol.

For “SAGGMRIEVEIEEVRELPDGRLVFRVRARIELKVRVLERDENGRWRELPEEEVTVELEVEVEVFLPPSAGGS [r16_693_TrROS_Hall]”, which “folding stability dG unfold” value is on record?
The value was 3.97 ± 0.19 kcal/mol.

With “SAGGSAMFMFELTIPPNAKIPPGYKLKIRFPNGKEEEYKFNNGPIKIWFYMDPDGNIQLDLEVEKKSAGGSA [r15_992_TrROS]” as the sequence, how does the “folding stability dG unfold” value read?
Its value is 2.97 ± 0.09 kcal/mol.

For “SFLSPGDKFKFPNGNNYRIENFDISYDPGNNNPMIEIELVPLPPPKPEDENKKDPDGKTKTENKYKYKGPSA [r9_914_TrROS]”, which “folding stability dG unfold” value is on record?
The value was 0.61 ± 0.28 kcal/mol.

Which “folding stability dG unfold” value does the source give for “SAGGSAGGSAGGSSIEELRRSPEVEVEVSTEKLPNGKTVTTVTLTPPDGVPTTIVLPEGSAGGSAGGSAGGS [r4_70_JUSTAS]” here?
The value was 0.266 ± 0.075 kcal/mol.

For “SAGGSALKIHPDEKVLVKLKNTKKPVEAKVVKVEKLPNNKWVFYVEVKLNGKKVKIPVDGKDVVVASAGGSA [r15_62_TrMRF]”, which “folding stability dG unfold” value is on record?
The value was 2.55 ± 0.2 kcal/mol.

Which “folding stability dG unfold” value does the source give for “SAGGSAGGPEVYPVPGLTPEQFRELVERHGGRLRVVLPGGEEVELDFTRDSRPIPGKPAVVVFGSAGGSAGG [r6_303_TrMRF]” here?
Its value is 0.498 ± 0.019 kcal/mol.

Which “folding stability dG unfold” value does the source give for “SAGGSAGGSNRLVFRFGGYYYVVEIKPPNGKEETIMMPPDDIDDLPKNWKVEVEPIKPGQPIPSAGGSAGGS [r12_419_TrROS]” here?
The value was 1.09 ± 0.12 kcal/mol.
